Assay results as given in US20260098059A1 (ENDOMET BIOSCIENCES, published 2026).
Several values for one entry are separate records, joined by “and”; a condition that tells them apart may be missing. Equal entries are not always repeated.

T1: β-catenin (UniProt P35222 134-665, limits assumed, biotinylated in the SPR and plate assays)
T1 construct: also called beta catenin; biotinylated β-catenin
T1 sequence (looked up): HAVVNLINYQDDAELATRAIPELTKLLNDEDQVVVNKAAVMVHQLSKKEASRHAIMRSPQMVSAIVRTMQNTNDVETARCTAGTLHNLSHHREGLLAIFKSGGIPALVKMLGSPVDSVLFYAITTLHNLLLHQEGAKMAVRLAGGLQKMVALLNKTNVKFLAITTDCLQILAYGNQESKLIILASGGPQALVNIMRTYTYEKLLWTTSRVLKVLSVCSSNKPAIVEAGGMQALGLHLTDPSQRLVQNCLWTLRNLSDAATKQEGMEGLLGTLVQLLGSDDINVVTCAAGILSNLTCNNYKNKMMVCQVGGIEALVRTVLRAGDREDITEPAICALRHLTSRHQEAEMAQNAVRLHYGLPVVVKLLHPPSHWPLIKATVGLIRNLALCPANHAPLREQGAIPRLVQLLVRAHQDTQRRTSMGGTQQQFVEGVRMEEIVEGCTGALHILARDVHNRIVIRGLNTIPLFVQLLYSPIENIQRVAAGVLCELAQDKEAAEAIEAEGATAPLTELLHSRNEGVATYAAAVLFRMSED


Key:
β-catenin [1] = target: T1, β-catenin; assay: SPR (Biacore)
Method: Biotinylated protein (beta catenin) was immobilized on a high-affinity streptavidin (SA) sensor chip (GE). Peptide at increasing concentrations was flowed over in HBS EP+ buffer at room temperature according to manufacturer's instructions. The maximum binding capacity of the surface (response at saturation) was calculated using the Biacore® system (GE) instructions and binding was measured at each concentration as a data point. The binding levels were determined over a range of analyte concentrations of at least from 20% to 80% saturation of the surface. On rates, off rates, and KD were calculated using Biacore® Insight Evaluation Software software (GE).

β-catenin [2] = target: T1, β-catenin; assay: cell-based or functional assay
β-catenin [3] = target: T1, β-catenin; assay: competitive FP
Outline: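 Competitive fluorescence polarization with inhibitor peptide serially diluted from 10 nM to 30 uM; polarization read at 470 nm excitation, 520 nm emission. Experiments performed three times.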

Row | Binder | Kd (β-catenin [1]) [nM] | Wnt Reporter EC50 (β-catenin [2]) | Kd (β-catenin [3]) | Proliferation IC50, Wnt dependent cells (β-catenin [2]) [nM]
1 | KMSRMWLLISFWG (HELM PEPTIDE1{K.M.S.R.M.W.L.L.I.S.F.W.G}$PEPTIDE1,PEPTIDE1,1:R3-13:R2$$$V2.0; SMILES CC[C@H](C)[C@@H]1NC(=O)[C@H](CC(C)C)NC(=O)[C@H](CC(C)C)NC(=O)[C@H](Cc2c[nH]c3ccccc23)NC(=O)[C@H](CCSC)NC(=O)[C@H](CCCNC(=N)N)NC(=O)[C@H](CO)NC(=O)[C@H](CCSC)NC(=O)[C@@H](N)CCCCNC(=O)CNC(=O)[C@H](Cc2c[nH]c3ccccc23)NC(=O)[C@H](Cc2ccccc2)NC(=O)[C@H](CO)NC1=O) [SEQ ID NO: 25] | 112 | > 7500 nM and ≤ 15000 nM | – | –
2 | KMPLAISWFEHIG (HELM PEPTIDE1{K.M.P.L.[meA].I.S.W.F.E.H.I.G}$PEPTIDE1,PEPTIDE1,1:R3-13:R2$$$V2.0; SMILES CC[C@H](C)[C@@H]1NC(=O)[C@H](Cc2c[nH]cn2)NC(=O)[C@H](CCC(=O)O)NC(=O)[C@H](Cc2ccccc2)NC(=O)[C@H](Cc2c[nH]c3ccccc23)NC(=O)[C@H](CO)NC(=O)[C@H]([C@@H](C)CC)NC(=O)[C@H](C)N(C)C(=O)[C@H](CC(C)C)NC(=O)[C@@H]2CCCN2C(=O)[C@H](CCSC)NC(=O)[C@@H](N)CCCCNC(=O)CNC1=O) [SEQ ID NO: 29] | 1030 | > 30000 nM | > 400 nM and ≤ 1000 nM | –
3 | H-MWESILDEHMQRVWRG-OH [SEQ ID NO: 23] | 1590 | > 30000 nM | ≤ 400 nM | –
4 | KMSRMWFLISLWG (HELM PEPTIDE1{K.M.S.R.M.W.F.L.I.S.L.W.G}$PEPTIDE1,PEPTIDE1,1:R3-13:R2$$$V2.0; SMILES CC[C@H](C)[C@@H]1NC(=O)[C@H](CC(C)C)NC(=O)[C@H](Cc2ccccc2)NC(=O)[C@H](Cc2c[nH]c3ccccc23)NC(=O)[C@H](CCSC)NC(=O)[C@H](CCCNC(=N)N)NC(=O)[C@H](CO)NC(=O)[C@H](CCSC)NC(=O)[C@@H](N)CCCCNC(=O)CNC(=O)[C@H](Cc2c[nH]c3ccccc23)NC(=O)[C@H](CC(C)C)NC(=O)[C@H](CO)NC1=O) [SEQ ID NO: 28] | 803 | > 22500 nM and ≤ 30000 nM | – | –
5 | GWWESILDEHVQRVWG (HELM PEPTIDE1{[CCCCCCCCCCCCCC(=O)[*:2]].G.W.[meW].E.S.I.L.D.E.H.V.Q.R.V.W.G}$$$$V2.0; SMILES CCCCCCCCCCCCCC(=O)NCC(=O)N[C@@H](Cc1c[nH]c2ccccc12)C(=O)N(C)[C@@H](Cc1c[nH]c2ccccc12)C(=O)N[C@@H](CCC(=O)O)C(=O)N[C@@H](CO)C(=O)N[C@H](C(=O)N[C@@H](CC(C)C)C(=O)N[C@@H](CC(=O)O)C(=O)N[C@@H](CCC(=O)O)C(=O)N[C@@H](Cc1c[nH]cn1)C(=O)N[C@H](C(=O)N[C@@H](CCC(N)=O)C(=O)N[C@@H](CCCNC(=N)N)C(=O)N[C@H](C(=O)N[C@@H](Cc1c[nH]c2ccccc12)C(=O)NCC(=O)O)C(C)C)C(C)C)[C@@H](C)CC) [SEQ ID NO: 1] | – | – | ≤ 400 nM | 18500
6 | MWFLISFWAG (HELM PEPTIDE1{M.W.F.L.I.S.F.W.[meA].G}$$$$V2.0; SMILES CC[C@H](C)[C@H](NC(=O)[C@H](CC(C)C)NC(=O)[C@H](Cc1ccccc1)NC(=O)[C@H](Cc1c[nH]c2ccccc12)NC(=O)[C@@H](N)CCSC)C(=O)N[C@@H](CO)C(=O)N[C@@H](Cc1ccccc1)C(=O)N[C@@H](Cc1c[nH]c2ccccc12)C(=O)N(C)[C@@H](C)C(=O)NCC(=O)O) [SEQ ID NO: 45] | – | ≤ 7500 nM | > 400 nM and ≤ 1000 nM | –
7 | H-MWFLISFWEG-OH [SEQ ID NO: 47] | – | ≤ 7500 nM | > 400 nM and ≤ 1000 nM | –
8 | H-MWESILDEHVQRVWG-OH [SEQ ID NO: 22] | 1370 | > 30000 nM | – | –

Continued, values first:

Row | Kd (β-catenin [1]) [nM] | Wnt Reporter EC50 (β-catenin [2]) | Kd (β-catenin [3]) | Proliferation IC50, Wnt dependent cells (β-catenin [2]) [nM] | Binder
9 | 515 | > 30000 nM | – | – | KMSRMWYLISFWG (HELM PEPTIDE1{K.M.S.R.M.W.Y.L.I.S.F.W.G}$PEPTIDE1,PEPTIDE1,1:R3-13:R2$$$V2.0; SMILES CC[C@H](C)[C@@H]1NC(=O)[C@H](CC(C)C)NC(=O)[C@H](Cc2ccc(O)cc2)NC(=O)[C@H](Cc2c[nH]c3ccccc23)NC(=O)[C@H](CCSC)NC(=O)[C@H](CCCNC(=N)N)NC(=O)[C@H](CO)NC(=O)[C@H](CCSC)NC(=O)[C@@H](N)CCCCNC(=O)CNC(=O)[C@H](Cc2c[nH]c3ccccc23)NC(=O)[C@H](Cc2ccccc2)NC(=O)[C@H](CO)NC1=O) [SEQ ID NO: 27]
10 | 58.2 | – | ≤ 400 nM | – | H-GGGDDLGANDELISFKDEGEQEEKSSENSSAERDLADVKSSLVNEK-NH2 (Tcf4 residues 7-51 with an added C-terminal K, amidated) [SEQ ID NO: 266 (H2N-Tcf4(7-51)-K-CONH2)]
11 | 130 | ≤ 7500 nM | – | – | H-MIRMWFLISFWG-OH [SEQ ID NO: 15]
12 | 123 | > 30000 nM | – | – | KMAESILDEHVQRVWG (HELM PEPTIDE1{K.M.[meA].E.S.I.L.D.E.H.V.Q.R.V.W.G}$PEPTIDE1,PEPTIDE1,1:R3-16:R2$$$V2.0; SMILES CC[C@H](C)[C@@H]1NC(=O)[C@H](CO)NC(=O)[C@H](CCC(=O)O)NC(=O)[C@H](C)N(C)C(=O)[C@H](CCSC)NC(=O)[C@@H](N)CCCCNC(=O)CNC(=O)[C@H](Cc2c[nH]c3ccccc23)NC(=O)[C@H](C(C)C)NC(=O)[C@H](CCCNC(=N)N)NC(=O)[C@H](CCC(N)=O)NC(=O)[C@H](C(C)C)NC(=O)[C@H](Cc2c[nH]cn2)NC(=O)[C@H](CCC(=O)O)NC(=O)[C@H](CC(=O)O)NC(=O)[C@H](CC(C)C)NC1=O) [SEQ ID NO: 30]
13 | 314 | ≤ 7500 nM | > 400 nM and ≤ 1000 nM | – | H-MWFLISFWG-OH [SEQ ID NO: 17]
14 | 270 | > 30000 nM | ≤ 400 nM | – | KMSRMWFLISFWRG (HELM PEPTIDE1{K.M.S.R.M.W.F.L.I.S.F.W.R.G}$PEPTIDE1,PEPTIDE1,1:R3-14:R2$$$V2.0; SMILES CC[C@H](C)[C@@H]1NC(=O)[C@H](CC(C)C)NC(=O)[C@H](Cc2ccccc2)NC(=O)[C@H](Cc2c[nH]c3ccccc23)NC(=O)[C@H](CCSC)NC(=O)[C@H](CCCNC(=N)N)NC(=O)[C@H](CO)NC(=O)[C@H](CCSC)NC(=O)[C@@H](N)CCCCNC(=O)CNC(=O)[C@H](CCCNC(=N)N)NC(=O)[C@H](Cc2c[nH]c3ccccc23)NC(=O)[C@H](Cc2ccccc2)NC(=O)[C@H](CO)NC1=O) [SEQ ID NO: 24]
15 | 110 | > 7500 nM and ≤ 15000 nM | – | – | KMWFLISFWG (HELM PEPTIDE1{K.M.W.F.L.I.S.F.W.G}$PEPTIDE1,PEPTIDE1,1:R3-10:R2$$$V2.0; SMILES CC[C@H](C)[C@@H]1NC(=O)[C@H](CC(C)C)NC(=O)[C@H](Cc2ccccc2)NC(=O)[C@H](Cc2c[nH]c3ccccc23)NC(=O)[C@H](CCSC)NC(=O)[C@@H](N)CCCCNC(=O)CNC(=O)[C@H](Cc2c[nH]c3ccccc23)NC(=O)[C@H](Cc2ccccc2)NC(=O)[C@H](CO)NC1=O) [SEQ ID NO: 26]
